Reference: patent US20150309057A1, “Giant Liposome Array for High-throughput Lipid-Interaction Screening” (EUROPEAN MOLECULAR BIOLOGY LABORATORY (EMBL), priority 2012, published 2015)

Columns and labels:
[1] = Liposome array cooperative membrane recruitment (NBI); settings: GFP-tagged fusion, cooperative binding
Source text: FIG. 13: High-throughput image processing and calculation of normalized binding intensity. (a) Image processing pipeline. Multiple images are acquired, one exposure time for Atto647 and multiple exposure times for GFP to capture broad range of binding intensities, from strong (short exp. times) to weak (longer exp. times). All images are then processed with CellProfiler software. After removal of background, the Atto647 image is used for segmentation to obtain a mask representing position of liposome membranes. In parallel the combination of overexposed pixels from both channels (Atto647 and GFP) is removed from every pair of Atto647 and GFP image. Subsequently, a mask is applied to all filtered (i.e. without overexposed pixels) images. Number of pixels matching with the mask and their mean fluorescence intensity is extracted from all images (i.e. both channels and every exposure time). Normalized binding intensity (NBI) is then calculated as a ratio of mean fluorescence intensity from GFP channel and mean fluorescence intensity from Atto647 channel for every pair of images. (b) Image segmentation and liposome counting. […] CellProfiler software is used to segment the image to retrieve a mask representing liposome membranes, and also to search for centers of liposomes that are then used for estimating a number of liposomes analyzed per image. […]

[2] = Liposome array lipid-binding profile, normalized binding intensity (NBI); settings: GFP-tagged fusion, cell lysate, 20 min incubation
Source text: (§1) FIG. 13: High-throughput image processing and calculation of normalized binding intensity. (a) Image processing pipeline. Multiple images are acquired, one exposure time for Atto647 and multiple exposure times for GFP to capture broad range of binding intensities, from strong (short exp. times) to weak (longer exp. times). All images are then processed with CellProfiler software. After removal of background, the Atto647 image is used for segmentation to obtain a mask representing position of liposome membranes. In parallel the combination of overexposed pixels from both channels (Atto647 and GFP) is removed from every pair of Atto647 and GFP image. Subsequently, a mask is applied to all filtered (i.e. without overexposed pixels) images. Number of pixels matching with the mask and their mean fluorescence intensity is extracted from all images (i.e. both channels and every exposure time). Normalized binding intensity (NBI) is then calculated as a ratio of mean fluorescence intensity from GFP channel and mean fluorescence intensity from Atto647 channel for every pair of images. […] CellProfiler software is used to segment the image to retrieve a mask representing liposome membranes, and also to search for centers of liposomes that are then used for estimating a number of liposomes analyzed per image. […] Fluorescence signal was analysed via a high-throughput image analysis pipeline (FIG. 13). […]

[3] = as above; settings: GFP-tagged fusion, cell lysate, 20 min incubation; remark: listed apart in the source
Source text: as §1

[4] = Akt PH domain binding to liposome array, wide-field fluorescence microscopy; settings: E. coli lysate with fluorescently labelled domain, 30 minutes incubation, PBS wash
Source text: (§2) The Akt Pleckstrin Homology (PH) domain (positions 6 to 110) is known to specifically bind to PI-(3,4)-P2 and PI-(3,4,5)-P3 and is thus, used as a model system to evaluate the specificity and sensitivity of assays performed using the liposome array. The fluorescently labelled Akt PH domain is expressed in Escherichia coli, cells are lysed by sonication and after a centrifugation at 10000 g, supernantant is recovered and injected in the microchip. Several liposome arrays each comprising liposomes formed from different lipids are produced. Liposomes either comprised POPC only, or a […] mol:mol mixture of POPC:DOPS, POPC:PI3P, POPC:PI4P, POPC:PI(3,4)P2, POPC:PI(3,5)P2, POPC:PI(4,5)P2, POPC:PI(3,4,5)P3 (all of which are purchased from Avanti polar lipids) as shown in FIG. 11(a) to (h), respectively.
(§3) E. coli lysate comprising the fluorescently labelled Akt PH domain is applied to the liposome array and incubated 30 minutes and washed with PBS buffer before imaging.

[5] = as above; settings: E. coli lysate with fluorescently labelled domain, 30 minutes incubation, PBS wash; remark: listed apart in the source
Source text: as §2, §3

[6] = Liposome array lipid-binding profile, normalized binding intensity (NBI); settings: GFP-tagged fusion, cell lysate, 20 min incubation; remark: listed apart in the source
Source text: as §1

Row | Molecule | membrane recruitment [1] | interaction confirmed by NBI profile [2] | interaction confirmed by NBI profile [3] | binding to liposomes [4] | binding to liposomes [5] | interaction confirmed by NBI profile [6]
1 | Pkcγ: protein kinase C-γ, GFP-tagged fusion | calcium-dependent recruitment | – | – | – | – | –
2 | Hsv2: Hsv2 protein (PROPPIN domain), GFP-tagged fusion (protein, UniProt P50079 1-448, looked up, GFP tag, Hsv2 protein (PROPPIN domain), GFP-tagged fusion) SVP1-like protein 2: MDVRRPIREAVNNRRKPKFLSVSFNQDDSCFSVALENGFRIFNTDPLTSKLSKTFKESATNQSRGTGIGYTRMLYRTNYIALVGGGKRPRHALNKLIIWDDLLQKETITLKFMSSIKDVFLSRIHIVVVLENTIEIFQFQTNPQRICPILDIPPNGSVDYVVCSSKHLQSQASQSQSKILEIIAFPSNKCVGQIQVADLSQIKYNSQNPKESALLPTSIIKAHKNPIKLVRLNRQGTMVATCSVQGTLIRIFSTHNGTLIKEFRRGVDKADIYEMSFSPNGSKLAVLSNKQTLHIFQIFETTNTETNTPDHSRANGSSHPLKNYIPKGLWRPKYLDSVWSICNAHLKNPIFDAHRNDNSGDVTHDNEFYKDRCRIGWCQDSNNREQDDSLVLVWQNSGIWEKFVILEKEQQDSSKTHYSLNESLRNEDTKSAGEPTRWELVRESWREL | – | interactions | interactions | – | – | –
3 | Akt PH domain: Akt Pleckstrin Homology (PH) domain (positions 6 to 110), fluorescently labelled, expressed in Escherichia coli (protein, UniProt P31749 6-110, looked up, fragment, PH domain fluorescent label, Akt Pleckstrin Homology (PH) domain (positions 6 to 110), fluorescently labelled, expressed in Escherichia coli) IVKEGWLHKRGEYIKTWRPRYFLLKNDGTFIGYKERPQDVDQREAPLNNFSVAQCQLMKTERPRPNTFIIRCLQWTTVIERTFHVETPEEREEWTTAIQTVADGL | – | interactions | – | binds | binds | interactions
